Measurements taken from the RNAGym collection of RNA variant scans (doi:10.1021/acssynbio.7b00057).

B1: Pistol ribozyme (parent)
chain: GGGUCGUUGUUCCAUAAUCGCGUGGAUAUGGCACGCAAGUUUCUACCGGGCACCGUAAAUGUCCGACUGGAGCCGUUCGGGCGGCUAUAAACAGACCUCAGGCCCGAAGCGUGGCGGCACCUGCCGCCGGUGGUAAAAAAGAUCGGAAGAGCACACGUCU

Variants of: B1
Test: aptazyme ON/OFF ratio, guanine; higher = stronger switching; co-transcriptional cleavage with and without guanine

| Variant | aptazyme ON/OFF ratio |
| --- | --- |
| U7A U8A G9U U11G C12U C13G | 1.17 |
| U7A U8A G9U U10C U11C C12U C13U | 1.08 |
| U7A U8A G9U U10C U11C C12U C13A | 1.02 |
| U7A U8A G9U U10C U11C C12U C13G | 1.02 |
| U7A U8A U10A C12G C13A | 1.14 |
| U7A U8A G9U U10C U11A C12A C13A | 1.2 |
| U7A U8A G9U U10C U11A C12A C13G | 1.14 |
| U7A U8A G9U U10C U11A C12A C13U | 1.23 |
| U7A U8A G9U U11A C12U C13U | 1.28 |
| U7A U8A G9U U11A C12U C13A | 1.04 |
| U7A U8A G9U U11A C12U C13G | 1.23 |
| U7A U8A G9U U10G U11A C13U | 1.1 |
| U7A U8A G9U U10G U11A C13A | 1.02 |
| U7A U8A G9U U10G U11A C13G | 1.04 |
| U7A U8A U10A C12A C13A | 1.23 |
| U7A U8A U10A C12A C13U | 1.37 |
| U7A U8A U10A C12A C13G | 1.03 |
| U7A U8A G9U U10G U11G C12G | 1.41 |
| U7A U8A G9U U10G U11G C12U | 1.37 |
| U7A U8A G9U U10G U11G C12A | 1.13 |
| U7A U8A G9U U10G U11C C12G | 1.2 |

| Variant | aptazyme ON/OFF ratio |
| --- | --- |
| U7A U8A G9U U10G U11C C12U | 1.08 |
| U7A U8A G9U U10G U11C C12A | 1.33 |
| U7A U8A G9U U10G U11C C13G | 1.09 |
| U7A U8A G9U U10G U11C C13U | 1.02 |
| U7A U8A G9U U10G U11C C13A | 1.06 |
| U7A U8A G9U U11C C12A C13G | 1.13 |
| U7A U8A G9U U11C C12A C13A | 1.12 |
| U7A U8A G9U U11C C12A C13U | 1.17 |
| U7A U8A G9U U10C U11A C12U C13U | 1.22 |
| U7A U8A G9U U10C U11A C12U C13A | 1.14 |
| U7A U8A G9U U10C U11A C12U C13G | 1.18 |
| U7A U8A G9U U11A C12G | 1.33 |
| U7A U8A G9U U11A C12A | 1.25 |
| U7A U8A G9U U11A C12U | 1.15 |
| U7A U8A G9U U10C U11C C13A | 1.04 |
| U7A U8A G9U U10C U11C C13U | 1.04 |
| U7A U8A G9U U10C U11C C13G | 1.04 |
| U7A U8A G9U U11C | 1.09 |
| U7A U8A G9U U11A | 0.956 |
| U7A U8A G9U U11G | 1.36 |
| U7A U8A G9U U10G C13A | 1.24 |

| Variant | aptazyme ON/OFF ratio |
| --- | --- |
| U7A U8A G9U U10G C13G | 1.21 |
| U7A U8A G9U U10G C13U | 1.36 |
| U7A U8A U10A | 1.05 |
| U7A U8A G9U U10G | 1.61 |
| U7A U8A G9U U11A C13A | 1.19 |
| U7A U8A G9U U11A C13G | 1.06 |
| U7A U8A G9U U11A C13U | 1.26 |
| U7A U8A G9U U10C U11G C12U C13G | 1.07 |
| U7A U8A G9U U10C U11G C12U C13A | 1.15 |
| U7A U8A G9U U10C U11G C12U C13U | 1.22 |
| U7A U8A G9U U10G U11A C12A C13A | 1.19 |
| U7A U8A G9U U10G U11A C12A C13G | 1.09 |
| U7A U8A G9U U10G U11A C12A C13U | 1.16 |
| U7A U8A G9U U10G C12G | 1.16 |
| U7A U8A G9U U10G C12U | 1.33 |
| U7A U8A G9U U10G C12A | 1.22 |
| U7A U8A G9U U11G C12G C13A | 1.22 |
| U7A U8A G9U U11G C12G C13G | 1.22 |
| U7A U8A G9U U11G C12G C13U | 1.1 |
| U7A U8A G9U U10C U11A C13A | 1.22 |
| U7A U8A G9U U10C U11A C13G | 1.17 |

| Variant | aptazyme ON/OFF ratio |
| --- | --- |
| U7A U8A G9U U10C U11A C13U | 1.08 |
| U7A U8A G9U U10C U11G C12A C13U | 1.18 |
| U7A U8A G9U U10C U11G C12A C13A | 1.14 |
| U7A U8A G9U U10C U11G C12A C13G | 1.11 |
| U7A U8A U10A C12G | 1.26 |
| U7A U8A U10A C12A | 1.33 |
| U7A U8A G9U U11A C12G C13U | 1.14 |
| U7A U8A G9U U11A C12G C13A | 0.953 |
| U7A U8A G9U U11A C12G C13G | 1.16 |
| U7A U8A G9U U10G U11G | 1.09 |
| U7A U8A G9U U10G U11C | 1.05 |
| U7A U8A G9U U10G U11A | 1.03 |
| U7A U8A G9U U10C U11G C12G C13A | 1.15 |
| U7A U8A G9U U10C U11G C12G C13U | 1.12 |
| U7A U8A G9U U10C U11G C12G C13G | 1.21 |
| U7A U8A G9U U10C U11C C12G C13U | 1.04 |
| U7A U8A G9U U10C U11C C12G C13A | 1.07 |
| U7A U8A G9U U10C U11C C12G C13G | 1.07 |
| U7A U8A G9U U10C U11G | 1.33 |
| U7A U8A G9U U10C U11C | 1.04 |
| U7A U8A G9U U10C U11A | 1.29 |
